T1: L-selectin (Rattus norvegicus, UniProt P30836)
T1 construct: L-selectin naturally expressed on leukocytes; endogenous in cells; host or cells: lymphocytes (rat thoracic duct lymphocytes; human PBMC also prepared)
T1 sequence (P30836 39-372): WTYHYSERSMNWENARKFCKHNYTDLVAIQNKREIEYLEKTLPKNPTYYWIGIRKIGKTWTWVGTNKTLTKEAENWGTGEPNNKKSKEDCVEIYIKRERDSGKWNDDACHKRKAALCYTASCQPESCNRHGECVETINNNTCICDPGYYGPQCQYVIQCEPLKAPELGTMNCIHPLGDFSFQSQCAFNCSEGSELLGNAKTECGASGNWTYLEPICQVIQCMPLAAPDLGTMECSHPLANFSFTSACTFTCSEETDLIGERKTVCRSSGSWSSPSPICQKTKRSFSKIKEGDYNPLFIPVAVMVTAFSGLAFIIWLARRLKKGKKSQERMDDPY

T2: E-selectin (Homo sapiens, UniProt P16581)
T2 construct: stably transfected with full-length cDNA encoding human E-selectin; expressed in transfected cells
T2 sequence (P16581 22-610): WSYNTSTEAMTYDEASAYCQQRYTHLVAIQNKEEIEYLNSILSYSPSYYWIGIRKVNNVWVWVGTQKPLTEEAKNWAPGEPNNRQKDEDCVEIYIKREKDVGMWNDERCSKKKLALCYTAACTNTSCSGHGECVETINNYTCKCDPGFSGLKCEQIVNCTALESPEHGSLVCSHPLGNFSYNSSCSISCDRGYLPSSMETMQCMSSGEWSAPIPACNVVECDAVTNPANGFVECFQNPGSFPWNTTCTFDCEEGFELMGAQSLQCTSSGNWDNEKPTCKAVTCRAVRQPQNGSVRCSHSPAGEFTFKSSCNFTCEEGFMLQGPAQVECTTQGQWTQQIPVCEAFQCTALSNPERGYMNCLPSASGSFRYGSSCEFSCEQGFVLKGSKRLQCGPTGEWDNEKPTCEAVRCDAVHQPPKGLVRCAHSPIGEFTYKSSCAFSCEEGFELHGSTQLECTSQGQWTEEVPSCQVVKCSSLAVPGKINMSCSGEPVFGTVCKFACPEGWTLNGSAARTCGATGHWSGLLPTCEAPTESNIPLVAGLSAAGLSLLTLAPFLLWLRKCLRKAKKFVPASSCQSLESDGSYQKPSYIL

T3: P-selectin (Homo sapiens, UniProt P16109)
T3 construct: CHO-P (CHO stably transfected with human cDNA encoding full length P-selectin); expressed in transfected cells
T3 sequence (P16109 42-830): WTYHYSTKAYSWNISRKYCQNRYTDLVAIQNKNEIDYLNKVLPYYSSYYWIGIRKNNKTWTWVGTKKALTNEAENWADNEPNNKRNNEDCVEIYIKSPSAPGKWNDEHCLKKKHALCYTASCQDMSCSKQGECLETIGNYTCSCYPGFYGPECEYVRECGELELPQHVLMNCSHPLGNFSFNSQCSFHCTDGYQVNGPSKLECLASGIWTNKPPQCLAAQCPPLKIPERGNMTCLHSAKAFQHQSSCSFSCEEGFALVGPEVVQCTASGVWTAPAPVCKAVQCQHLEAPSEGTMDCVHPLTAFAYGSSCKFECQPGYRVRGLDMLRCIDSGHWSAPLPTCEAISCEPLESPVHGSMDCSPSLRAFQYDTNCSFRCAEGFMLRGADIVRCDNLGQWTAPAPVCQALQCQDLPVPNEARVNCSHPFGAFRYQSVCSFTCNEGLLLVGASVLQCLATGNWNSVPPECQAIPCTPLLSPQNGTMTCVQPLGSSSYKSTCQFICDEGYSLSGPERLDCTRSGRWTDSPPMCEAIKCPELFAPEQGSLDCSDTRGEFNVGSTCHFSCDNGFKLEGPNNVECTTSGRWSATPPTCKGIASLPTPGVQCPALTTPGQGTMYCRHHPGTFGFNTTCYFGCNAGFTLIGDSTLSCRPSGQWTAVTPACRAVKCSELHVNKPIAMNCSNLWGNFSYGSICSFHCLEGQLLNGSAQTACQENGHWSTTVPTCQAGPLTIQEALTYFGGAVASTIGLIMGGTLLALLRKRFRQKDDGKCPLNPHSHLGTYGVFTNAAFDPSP


Experiments:
CD44 = assay: [35S]-SO4 metabolic labeling of CD44 in KG1a cells; type: cell-based, human; settings: 10 mM sodium chlorate for 24 hr after bromelain
Text: To determine if CD44 on KG1a cells is sulfated, KG1a cell cultures were metabolically labeled with [^35S]-SO4. CD44 immunoprecipitated from these cells was indeed sulfated (FIG. 11 A). To test whether sulfation was critical for L-selectin ligand activity of CD44, KG1a cells were pretreated with 0.1% bromelain, a protease that eliminates all KG1a HCLL activity (Sackstein, R. & Dimitroff, C. J. (2000). Blood. 96, 2765-2774) and also removes CD44 from the cell surface (Hale, L. P. & Haynes, B. F. (1992). J. Immunol 149:3809-3816). Following bromelain digestion of KG1a, re-expression of HCELL requires de novo protein synthesis, and protein synthesized in the presence of chlorate (a metabolic inhibitor of both protein and carbohydrate sulfation) is non-sulfated (Sackstein, R., Fu, L. and Allen, K. L. (1997). Blood. 89:2773-2781). Therefore, KG1a was treated with bromelain and confirmed removal of CD44 by flow cytometry. The KG1a cells were cultured in the absence or presence of 10 mM sodium chlorate for 24 hr and metabolically radiolabeled the cells for the last 8 hr of incubation with [^35S]-SO4 in sulfate-deficient CRCM-30 medium. […] This effect of chlorate was specific for sulfate incorporation and not a general inhibition of CD44 protein synthesis, as [^35S]-methionine/cysteine metabolic radioloabeling of CD44 was identical in chlorate- and non-chlorate-treated cell populations.

L-selectin [1] = biological target: T1, L-selectin; assay: Stamper-Woodruff assay, lymphocyte adherence to immunoprecipitated CD44 and PSGL-1; type: cell-based; settings: 0.75 μg/spot (PSGL-1 1 μg/spot); 80 rpm, 4° C.; 100× mag.
Protocol: These protein spots were then fixed in 3% glutaraldehyde, unreactive aldehyde groups were blocked in 0.2M lysine and slides were kept in RPMI-1640 without NaBicarbonate/2% FBS until ready for testing. Lymphocytes (10^7/ml RPMI-1640 without NaBicarbonate/5% FBS) were overlayed onto these fixed immunoprecipitates and incubated on an orbital shaker at 80 rpm for 30 min. at 4° C. The number of adherent lymphocytes was quantified by light microscopy using an ocular grid under 100× magnification (a minimum of 5 fields/slide, 2 slides/experiment, and 3 separate experiments). Data were presented as the mean number of bound lymphocytes±standard deviation. KG1a CD34 and L-selectin control immunoprecipitates were also tested in this manner. To verify the dependence for sialic acid, glutaraldehyde-fixed spots were treated with Vibrio cholerae neuraminidase (0.1 U/ml RPMI-1640 without NaBicarbonate/2% FBS for lhr at 37° C.).
Immunoaffinity purified material (0.75-3 μg/spot) was spotted onto glass slides for analyses in the Stamper-Woodruff assay (See below for assay description). For autoradiographic analysis of immunoprecipitated [^35S]-methionine-radiolabeled CD44 and PSGL-1, immunoprecipitates were spotted onto glass slides, allowed to dry and exposed Kodak BioMax-MR film for 12 h at −80° C. Densitometric analysis (optical density) of the autoradiograms was performed with a Hewlett-Packard Scanj et 5200C scanner and NIH Image processing and analysis program.

E-selectin [2] = biological target: T2, E-selectin; assay: CHO-E cell rolling on immobilized immunoprecipitates, parallel-plate flow chamber; type: cell-based; settings: for E-selectin ligand activity (CHO-E cell rolling): immunoprecipitates on plastic, 2.8 dynes/cm^2
Protocol: CD44 was immunoprecipitated from untreated cell lysates or from cell lysates treated with N-glycosidase-F (0.8 U/ml) Vibrio cholerae neuraminidase (0.1 U/ml) or a-L-fucosidase (80 mU/ml), and PSGL-1 was immunoprecipitated from untreated cell lysates as previously described (Sackstein and Dimitroff, 2000; Dimitroff et al., 2000).
CD44 or PSGL-1 immunoprecipitates were spotted onto plastic petri dishes, fixed in 3% glutaraldehyde and incubated in 0.2M lysine to block unreactive aldehyde groups, and then non-specific binding was prevented by incubating in 100% FBS for 1 hr at RT. Fixed spots were also treated with Vibrio cholerae neuraminidase (0.1 U/ml assay medium), which was overlaid onto the spots and incubated at 37° C. for 1 hr. […] The flow rate was then increased to achieve a shear stress of 2.8 dynes/cm^2. The frequency of cells rolling per 100× magnification field was determined, and data were expressed as the mean±standard deviation of 8 fields visualized from a minimum of 3 experiments.

E-selectin [3] = biological target: T2, E-selectin; assay: Blot rolling assay with CHO-E cells; type: cell-based; settings: immunoprecipitated CD44 on Western blot; 3.8 dynes/cm^2
Protocol: The blot rolling assay was performed as previously described (Dimitroff et al., 2000). Briefly, CHO-E, CHO—P or CHO-Mock transfectants were isolated as described above, washed twice in HBSS and suspended at 10^7/ml in HBSS/10 mM HEPES/2mMCaCl2 (H/H/Ca++)/10% glycerol. Western blots of HPC membrane preparations stained with HECA-452 were rendered transparent by incubating them in H/H/Ca++/10% glycerol. The blots were then placed in the parallel-plate flow chamber, and CHO transfectants (2×10^6/ml) were perfused into the chamber. After allowing the cells to come in contact with the blotting membrane, the flow rate was adjusted to exert a shear stress of 3.8 dynes/cm^2. The viscosity of 10% glycerol adhesion assay medium was considered in the calculation of shear stress values. The number of cells rolling on and between each immunostained banding region was quantified under 100× magnification within each field of view on the video monitor using molecular weight markers (Kaleidoscope Molecular Weight Markers, Bio-Rad Lab.; See Blue® from Novex, Inc.) as guides to help align and visualize the apparent molecular weights of the proteins of interest. A minimum of 3 experiments was performed and results were expressed as the mean±SD of cell rolling/field at 100× magnification.

L-selectin [4] = assay: Blot rolling assay with L-selectin-expressing lymphocytes; type: cell-based; settings: 2.3 dynes/cm^2
Protocol: L-selectin-expressing lymphocytes were isolated as previously described (Oxley, S. M. & Sackstein, R. (1994). Blood. 84:3299-3306; Sackstein, R., Fu, L. and Allen, K. L. (1997) Blood. 89:2773-2781), washed twice in HBSS and suspended at 2×10^7/ml in HBSS/10 mM HEPES/2mMCaCl2 (H/H/Ca^++)/10% glycerol. Cell lysate material is separated by SDS-PAGE and transferred to PVDF under standard blotting conditions. Western blots of KG1a membrane preparations stained with HECA-452, A3D8 or Hermes-1 were rendered transparent by incubating them in H/H/Ca^++/10% glycerol. To study L-selectin-mediated adhesive interactions, the blots were placed in the parallel plate flow chamber and lymphocytes were perfused into the chamber at a shear force of 2.3 dynes/cm^2 and cellular adhesive interactions are observed by video microscopy and analyzed in real time.
The number of lymphocytes rolling on and between each immunostained banding region was quantified from five independent fields under 200× magnification on the video monitor using molecular weight markers as guides to help align and visualize the proteins of interest. A minimum of 3 experiments were performed, and results were expressed as the mean of cell rolling/field.

P-selectin = biological target: T3, P-selectin; assay: CHO-P cell rolling on immobilized immunoprecipitates, parallel-plate flow chamber; type: cell-based; settings: 2.8 dynes/cm^2
Protocol: CD44 or PSGL-1 immunoprecipitates were spotted onto plastic petri dishes, fixed in 3% glutaraldehyde and incubated in 0.2M lysine to block unreactive aldehyde groups, and then non-specific binding was prevented by incubating in 100% FBS for 1 hr at RT. Fixed spots were also treated with Vibrio cholerae neuraminidase (0.1 U/ml assay medium), which was overlaid onto the spots and incubated at 37° C. for 1 hr. The protein dishes were placed in the parallel-plate flow chamber and CHO-E, CHO-P (CHO stably transfected with human cDNA encoding full length P-selectin), CHO-P cells treated with function blocking anti-P-selectin moAb (clone AK-4; Pharmingen) (10 μg/ml), CHO-E cells treated with function blocking anti-E-selectin Abs (10 μg/ml) (clone 68-5H1 1) or Mock transfectants were perfused into the chamber (2×10^6/ml H/H/Ca++) at a flow rate of 0.2 ml/min until the cells were in contact with the substrate. The flow rate was then increased to achieve a shear stress of 2.8 dynes/cm^2. The frequency of cells rolling per 100× magnification field was determined, and data were expressed as the mean±standard deviation of 8 fields visualized from a minimum of 3 experiments.

Row | Molecule | incorporation of [35S]-SO4 into immunoprecipitable CD44 (Hermes-1) (CD44) | Mean Number of Bound Lymphocytes (L-selectin [1]) | E-selectin ligand activity (CHO-E cell rolling) (E-selectin [2]) | E-selectin ligand activity (CHO-E cell rolling) in blot rolling assay (E-selectin [3]) | L-selectin ligand activity (lymphocyte tethering and rolling) in blot rolling assay (L-selectin [4]) | CHO-E cell rolling (E-selectin [2]; lower shear stress of 0.6 dynes/cm^2) | P-selectin ligand activity (CHO-P cell rolling) (P-selectin)
1 | [O-][Cl+2]([O-])O [chlorate, sodium chlorate] | completely inhibited |  |  |  |  |  | 
2 | KG1a N-glycosidase-F CD44: CD44 immunoprecipitated from N-glycosidase-F-treated KG1a membrane protein |  | 30.7 | abrogated CHO-E cell rolling | completely abrogated CHO-E cell rolling | abolished all L-selectin-mediated lymphocyte tethering and rolling |  | 
3 | KG1a PSGL-1: PSGL-1 immunoaffinity purified (PL-2) from KG1a cells (protein) QATEYEYLDYDFLPETEPPEMLRNSTDTTPLTGPGTPESTTVEPAARRSTGLDAGGAVTELTTELANMGNLSTDSAAMEIQTTQPAATEAQTTQPVPTEAQTTPLAATEAQTTRLTATEAQTTPLAATEAQTTPPAATEAQTTQPTGLEAQTTAPAAMEAQTTAPAAMEAQTTPPAAMEAQTTQTTAMEAQTTAPEATEAQTTQPTATEAQTTPLAAMEALSTEPSATEALSMEPTTKRGLFIPFSVSSVTHKGIPMAASNLSVNYPVGAPDHISVKQCLLAILILALVATIFFVCTVVLAVRLSRKGHMYPVRNYSPTEMVCISSLLPDGGEGPSATANGGLSKAKSPGLTPEPREDREGDDLTLHSFLP |  | 44.8 | significantly lower |  |  | equivalent to that of CD44 | rolled on KG1a PSGL-1

Source: US10370642B2, “Hematopoietic progenitor cell populations having affinity for E-selectin / L-selectin” (priority 2000, dated 2019)
